One substance from US20260263594A1 can be followed below.

The target in test [1] is Holo-transferrin (Homo sapiens (Human)) (UniProt P02787). Put plainly: SPR, Biacore T200, multi-cycle, Tbp-B at 6.17-500 nM; Run-3.
For test [2] the target is unchanged. In words: SPR, Biacore T200, multi-cycle, Tbp-B at 6.17-500 nM; Run-1. For orientation: Surface plasmon resonance follows binding to a sensor surface in real time, without labels.
Test [3] has the same target. Put plainly: SPR, Biacore T200, multi-cycle, Tbp-B at 6.17-500 nM; average of 3 runs.
For test [4] the target is unchanged. Put plainly: SPR, Biacore T200, multi-cycle, Tbp-B at 6.17-500 nM; Run-2.

Values joined by “and” are separate entries in the source; they are usually repeats but may differ in a detail not shown here. Identical values can stand only once.

UniProt P02787, sequence (P02787 20-698 limits assumed, form in doubt): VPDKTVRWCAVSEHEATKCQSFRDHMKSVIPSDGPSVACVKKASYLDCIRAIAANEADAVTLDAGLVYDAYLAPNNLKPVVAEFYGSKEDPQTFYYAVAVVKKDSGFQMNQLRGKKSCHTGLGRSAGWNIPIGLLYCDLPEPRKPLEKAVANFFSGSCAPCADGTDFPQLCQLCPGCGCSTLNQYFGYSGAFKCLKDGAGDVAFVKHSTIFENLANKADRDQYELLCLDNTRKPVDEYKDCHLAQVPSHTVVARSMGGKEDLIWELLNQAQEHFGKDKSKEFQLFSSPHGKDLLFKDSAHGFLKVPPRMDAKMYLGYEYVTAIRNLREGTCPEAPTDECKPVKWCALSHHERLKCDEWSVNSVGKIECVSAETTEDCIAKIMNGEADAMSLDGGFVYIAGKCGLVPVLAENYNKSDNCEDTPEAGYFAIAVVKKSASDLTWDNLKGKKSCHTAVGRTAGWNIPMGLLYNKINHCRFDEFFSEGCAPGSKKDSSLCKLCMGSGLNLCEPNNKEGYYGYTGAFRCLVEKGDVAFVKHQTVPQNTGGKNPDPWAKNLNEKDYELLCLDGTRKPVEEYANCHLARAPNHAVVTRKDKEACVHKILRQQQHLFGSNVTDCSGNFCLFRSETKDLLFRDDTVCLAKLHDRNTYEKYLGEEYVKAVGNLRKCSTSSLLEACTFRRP

Broadly, the Kd is the constant that tells how readily two partners part at equilibrium. Read a low Kd as tighter binding. In general, koff refers to a measure of how fast the partners let go of each other. Lower therefore signals slow dissociation. As for “recombinant transferrin binding protein B (r-Tbp-B) from Neisseria meningitidis serogroup C / serotype 2a (strain FAM18) (receptor)”, the Kd in test [1] was 0.0081 µM and 0.019 µM and 0.022 µM; in test [2], 0.00755 µM and 0.0163 µM and 0.0183 µM; in test [3], 0.00792 µM and 0.0186 µM and 0.0195 µM; in test [4], 0.0081 µM and 0.021 µM and 0.019 µM. For the same substance, the koff in test [1] is 0.02 s⁻¹ and 0.009 s⁻¹; in test [2], 0.0187 s⁻¹ and 0.0081 s⁻¹ and 0.0083 s⁻¹; in test [3] it was 0.019 s⁻¹ and 0.009 s⁻¹; in test [4], 0.019 s⁻¹ and 0.009 s⁻¹.
